Source: paper PMC9410896

T1: MucR1 (Sinorhizobium fredii CCBAU45436, UniProt C3M8K5 1-143, A8T;V56I)
T1 sequence: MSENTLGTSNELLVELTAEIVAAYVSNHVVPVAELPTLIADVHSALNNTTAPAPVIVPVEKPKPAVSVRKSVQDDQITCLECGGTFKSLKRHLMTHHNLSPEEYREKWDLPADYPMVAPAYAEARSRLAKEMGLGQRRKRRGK

B1: spacer S1 (primer name spacer2) (dsDNA)
DNA 1: GCCCAGTTCTACTCCATTTT
DNA 2: AAAATGGAGTAGAACTGGGC
B2: motif_b4 (dsDNA)
DNA 1: TTATATTGACCGACTGAGATA
DNA 2: TATCTCAGTCGGTCAATATAA
B3: motif_b7 (dsDNA)
DNA 1: ATTGATATATCCATAGACAAC
DNA 2: GTTGTCTATGGATATATCAAT
B4: motif_b5 (dsDNA)
DNA 1: TTTAAATCACCTATTTATATT
DNA 2: AATATAAATAGGTGATTTAAA
B5: motif_b3 (dsDNA)
DNA 1: ATGCTTCCAAGTTGTTTAGGT
DNA 2: ACCTAAACAACTTGGAAGCAT
B6: spacer S3 (dsDNA)
DNA 1: AATTATCGGGATCGGGGGATAATGACA
DNA 2: TGTCATTATCCCCCGATCCCGATAATT
B7: motif_a1 (dsDNA)
DNA 1: GTTGTTTAGGTATTTTTTGGGGAATTGAAT
DNA 2: ATTCAATTCCCCAAAAAATACCTAAACAAC
B8: spacer S4 (dsDNA)
DNA 1: AAACATTGACTGTATATAATTTTA
DNA 2: TAAAATTATATACAGTCAATGTTT
B9: spacer S2 (primer name spacer1) (dsDNA)
DNA 1: GCCCAGTTCTACTCCATTTTTAGTAGAAA
DNA 2: TTTCTACTAAAAATGGAGTAGAACTGGGC
B10: motif_b1(2) (dsDNA)
DNA 1: GGTATTTTTTGGGGAATTGAAT
DNA 2: ATTCAATTCCCCAAAAAATACC
B11: motif_b6 (dsDNA)
DNA 1: ATAGACAACGCAAAGTATTGA
DNA 2: TCAATACTTTGCGTTGTCTAT
B12: motif_b8 (dsDNA)
DNA 1: CAATTGTATTGATATATCCAT
DNA 2: ATGGATATATCAATACAATTG

Each binder was assayed against T1, MucR1 (assay: EMSA).

Binding result, binds:
B1
B2
B3
B4
B5
B6
B7
B8
B9
B10
B11

Biological target: T1, MucR1
Assay: EMSA
Remark: another data set of the same source

Binding result, binds:
B12
